Changes are numbered by the printed parent chain.

Common to all, as to assay: BLI
Test [1] deals with SARS-CoV-2 Omicron BA.2.12.1 RBD (SARS-CoV-2 Omicron BA.2.12.1, L452Q).
The target of test [2] is SARS-CoV-2 Omicron BA.4/5 RBD (SARS-CoV-2 Omicron BA.4/5, L452R).
Test [3] deals with SARS-CoV-2 Omicron BA.2.13 RBD (SARS-CoV-2 Omicron BA.2.13, L452M).
Test [4] has as its target SARS-CoV-2 Delta (B.1.617.2) RBD (SARS-CoV-2 Delta (B.1.617.2), L452R).
Test [5] has as its target SARS-CoV-2 Omicron BF.7 RBD (SARS-CoV-2 Omicron BF.7, L452R).
Test [6] deals with SARS-CoV-2 Kappa (B.1.617.1) RBD (SARS-CoV-2 Kappa (B.1.617.1), L452R).
Test [7] concerns the target SARS-CoV-2 Omicron BQ.1.1 RBD (SARS-CoV-2 Omicron BQ.1.1, R346T | L452R).
The target of test [8] is SARS-CoV-2 Beta (B.1.351) RBD (SARS-CoV-2 Beta (B.1.351), strain).
Test [9] addresses SARS-CoV-2 Gamma (P.1) RBD (SARS-CoV-2 Gamma (P.1), strain).
The target of the next test is SARS-CoV-2 WT S-trimer (SARS-CoV-2 ancestral (WT), UniProt P0DTC2, deletion of amino acids PRRA (681-684)).
Test [10] addresses SARS-CoV-2 Omicron EG.5.1 RBD (SARS-CoV-2 Omicron EG.5.1, F490S).
The target in test [11] is SARS-CoV-2 Alpha (B.1.1.7) RBD (SARS-CoV-2 Alpha (B.1.1.7), strain).
Test [12] deals with SARS-CoV-2 Omicron EG.5 RBD (SARS-CoV-2 Omicron EG.5, R346T | F490S).
For test [13], the target named is SARS-CoV-2 Omicron BA.1 RBD (SARS-CoV-2 Omicron BA.1, strain).
Test [14] concerns the target SARS-CoV-2 Omicron XBB RBD (SARS-CoV-2 Omicron XBB, F490S).
Test [15] has as its target SARS-CoV-2 Omicron BA.3 RBD (SARS-CoV-2 Omicron BA.3, strain).
Test [16] deals with SARS-CoV-2 Omicron BA.2.75 RBD (SARS-CoV-2 Omicron BA.2.75, strain).
Test [17] addresses SARS-CoV-2 Omicron BA.1.1 RBD (SARS-CoV-2 Omicron BA.1.1, strain).
Test [18] has as its target SARS-CoV-2 Omicron BA.2 RBD (SARS-CoV-2 Omicron BA.2, strain).
Test [19] deals with SARS-CoV-2 Omicron XBB.1.5 RBD (SARS-CoV-2 Omicron XBB.1.5, F490S).

B1: R1-32 (antibody, V domains shown)
VH: EVQLVESGAEVKKPGSSVKVSCKASGGTFSSYAISWVRQAPGQGLEWMGGIIPILGIANYAQKFQGRVTITADKSTSTAYMELSSLRSEDTAVYYCARENGYSGYGAAANFDLWGRGTLVTVSS
VL: QSVLTQPPSVSGAPGQRVTISCTGSSSNIGAGYDVHWYQQLPGTAPKLLIYGNSNRPSGVPDRFSGSKSGTSASLAITGLQAEDEADYYCQSYDSSLSGSVFGGGTKLTVL
One may read the Kd as the free concentration of one partner at which half of the binding sites on the other are occupied at equilibrium, for simple one-to-one binding. Lower therefore signals higher affinity. Consider B1, for which the Kd in [1], in [2], in test [3], in test [4], in [5] and in test [6] was greater than 55 nM in each case. Moreover, in test [7], the Kd is greater than 55 nM.

B2: BD56-104+D59NH+E62QH (antibody, V domains shown)
VH: QVQLVQSGAEVKTPGSSVKVSCKASGGTFGSHSITWVRQAPGQGLEWMGRVIPILGIPNFAQSFQGRVAITADRSTSTAHMELSRLRSEDTAVYYCARDVGYSGSGSSNYFDSWGQGTLVTVSS
VL: B1 VL with S26N, Q39R, G52V, S54N, K68R, T71A, D87E, V101I
As to B2, the “fold reduction in binding relative to BD56-104” value in [2] is roughly 100 fold.

B3: R1-32-AAM (R1-32-artificial-affinity-matured) (antibody, V domains shown)
VH: B1 VH with A33F, N59D, Q62E, A109Y
VL: B1 VL with S26D, G70D, G99D
With B3, the “fold enhancement of affinity relative to R1-32” value in test [2], in [4], in test [5], in test [6] and in test [7] was roughly 100 fold each time.

B4: C807 (antibody, V domains shown)
VH: QVQLVQSGAEAKKPGSSVKVSCKASGGTFKSYIINWVRQAPGQGLEWMGEIIPIFGTANYAQKFQGRVTSTADESTSTAYMELSSLKSEDTAVYYCARGRGYSGYGASYYFDYWGQGTLVTVSS
VL: B1 VL with S26N, G52A, S96G
Regarding B4, the Kd in test [1] is less than 2.1 nM; in test [2], less than 2.1 nM; in [3] it was less than 2.1 nM; in [8], less than 0.3 nM; in [9] it was less than 0.3 nM; in [10], less than 4.5 nM. The dissociation constant Kd in test [11] is less than 0.3 nM; in [12] it was less than 4.5 nM; in test [4] it was less than 2.1 nM; in test [5] it was less than 2.1 nM; in [6], less than 2.1 nM; in test [13] it was less than 0.3 nM. Moreover, the Kd in [7] is less than 2.1 nM; in [14], less than 4.5 nM; in [15] it was less than 0.3 nM; in [16] it was less than 0.3 nM; in test [17], less than 0.3 nM; in test [18], less than 0.3 nM. In test [19], this molecule displayed a Kd of less than 4.5 nM. Moreover, in the test with SARS-CoV-2 WT S-trimer, the binding result is recorded as “binds”.

B5: BD56-104 (antibody, V domains shown)
VH: B2 VH with N59D, Q62E
VL: B1 VL with S26N, Q39R, G52V, S54N, K68R, T71A, D87E, V101I
Turning to B5, the Kd in test [1] is less than 2.1 nM; in test [2] it was less than 2.1 nM; in test [3], less than 2.1 nM; in [8], less than 0.3 nM; in [9] it was less than 0.3 nM; in test [10], less than 4.5 nM. Besides, the Kd in [11] was less than 0.3 nM; in test [12] it was less than 4.5 nM; in test [4], less than 2.1 nM; in [5], less than 2.1 nM; in test [6], less than 2.1 nM; in test [13] it was less than 0.3 nM. Besides, the equilibrium dissociation constant (Kd) is less than 2.1 nM in [7]; less than 4.5 nM in test [14]; less than 0.3 nM in test [15]; less than 0.3 nM in [16]; less than 0.3 nM in test [17]; less than 0.3 nM in test [18]. This molecule showed a Kd in test [19] of less than 4.5 nM. Moreover, the binding result with SARS-CoV-2 WT S-trimer was “binds”.

B6: BD56-597 (antibody, V domains shown)
VH: QVQLVQSGAEVKKPGSSVKVSCKASGGTFSTYPISWVRQAPGQGVEWMGAIIPILGTTDYAQIFQGRVTITADKSTSTAYMELSSLRPEDTAVYYCARERGYSGYGAAYYFDSWGQGTLVTVSS
VL: B1 VL with S26D, G52V, S54I, G70A, S100V
B6: the Kd in test [1] is less than 2.1 nM; in test [2], less than 2.1 nM; in test [3] it was less than 2.1 nM; in test [8], less than 0.3 nM; in test [9], less than 0.3 nM; in [10], less than 4.5 nM. In addition, the equilibrium dissociation constant (Kd) in [11] is less than 0.3 nM; in test [12], less than 4.5 nM; in test [4], less than 2.1 nM; in [5] it was less than 2.1 nM; in test [6] it was less than 2.1 nM; in test [13] it was less than 0.3 nM. Also, the Kd in [7] is less than 2.1 nM; in [14], less than 4.5 nM; in test [15] it was less than 0.3 nM; in [16], less than 0.3 nM; in test [17], less than 0.3 nM; in test [18] it was less than 0.3 nM. The molecule further yielded a Kd in test [19] of less than 4.5 nM. Further, in the test with SARS-CoV-2 WT S-trimer, the binding result is reported as “binds”.

B7: C092-germline HCDR1 (antibody, V domains shown)
VH: QVQLVQSGAEVKKPGSSVKVSCKASGGTFSSYAISWVRQAPGQGLEWMGRIIPILGTANYAQNFQGRVMMTADKSTSTAYMELSSLRSEDTAVYYCARDSGYSGYGSTYYMDVWGKGTTVTVSS
VL: B1 VL with S26N, T44A, S54N, G70D, A82V, G99D, G104S, L108V
Turning to B7, the “fold reduction in binding relative to C092” value in test [2], in [4] and in test [6] was roughly 10 fold each time.

B8: C092 (antibody, V domains shown)
VH: B7 VH with T28S, S30T, S31N, Y32H, A33F
VL: B1 VL with S26N, T44A, S54N, G70D, A82V, G99D, G104S, L108V
In the case of B8, the Kd was less than 2.1 nM in test [1]; less than 2.1 nM in test [2]; less than 2.1 nM in [3]; less than 0.3 nM in test [8]; less than 0.3 nM in [9]; less than 4.5 nM in test [10]. In addition, the Kd in [11] is less than 0.3 nM; in [12] it was less than 4.5 nM; in [4] it was less than 2.1 nM; in test [5], less than 2.1 nM; in test [6], less than 2.1 nM; in [13], less than 0.3 nM. Also, the Kd is less than 2.1 nM in [7]; less than 4.5 nM in test [14]; less than 0.3 nM in test [15]; less than 0.3 nM in test [16]; less than 0.3 nM in test [17]; less than 0.3 nM in [18]. The same molecule returned a Kd in test [19] of less than 4.5 nM. In the test with SARS-CoV-2 WT S-trimer, the binding result was “binds”.

For the origin of these results see publication doi:10.64898/2025.12.19.695307 (bioRxiv, 2025).
